The series deals with the molecule itself. As to the kind of experiment: non-reducing SDS-PAGE and Western blot. A general note: Immunoblotting shows a protein as a band on a membrane.

B1: matrix metalloproteinase-9 (MMP-9) (enzyme)
chain: not shown
Regarding B1, the “stoichiometry N” value was found to be 2.

As usually defined, the stoichiometry N is the number of molecules, sites or subunits per partner or assembly.

Source of the values: article PMC3039075 (Nitric oxide : biology and chemistry / official journal of …, 2010).
